Publication PMC8669613 (Cell reports, 2021)

Assays:
[1] = target: T1, GST-SdhA-CBM2 (1029-1260aa) (Legionella pneumophila, UniProt Q6RCQ3 1029-1260); experiment: ELISA
[2] = target: T1, GST-SdhA-CBM2 (1029-1260aa); experiment: pull-down

Binder	binding result [1]	fold pull-down above the GST control [2]
His-tagged ASH domain of OCRL (536aa-678aa) (domain or fragment) not shown	binds	–
His-tagged ASH/RhoGAP domain of OCRL (536aa-901aa) (domain or fragment) not shown	binds	–
GFP-tagged, full-length OCRL (natural protein) not shown	–	~47 fold
